Reference: publication PMC2173742 (The Journal of Cell Biology, 2003)

Legend:
[1] = biological target: the molecule itself; assay: SEC + other: velocity sedimentation
[2] = biological target: bovine Taxol-stabilized MTs (bovine) (UniProt Q6B856); assay: co-sedimentation

Kd [2]: 300 nM
B1: Ase1p–MYC–6xHis (natural protein, budding yeast, UniProt P50275 1-885, looked up)
chain: METATSSPLPIKSRRNSENSGSTTVIPHMNPSLATPLTVSTMVNQSNSKEFMKLTPVRIRDFGSPLKNVSTNYHFLDSENGKGNTMDNMYRENFILISKDLEKLLENLNVIYQNIGYSNTEIITKEKIIFTTISNSIKQFFEQADEELKRLSAENGIEQDILNNILERINDPSGIKTIPDLYIRNAILLQESKTVPQSPKKPLSLLSKKAALDTAKKFVLGSFLPRLRDYLKSLITLKHLIQSVKENLPGLTEADNEAIAEFPELSTLTAYLLQIENGKGDIGLSMKFIIDNRKDILKGSAFKTINEESVKHMNEVIKIYEEEYERRFKSVLTKKVSISSICEQLGTPLATLIGEDFEQDLRSYGEEENSTSEIPNFHPVDRERMSKIDITLEKLQAIHKERADKKRLLMEQCQKLWTRLKISQEYIKTFMRNNSSLSTESLGRISKEVMRLEAMKKKLIKKLISDSWDKIQELWRTLQYSEESRSKFIIVFEELRNSATTLQEDELLLETCENELKRLEEKLTLYKPILKLISDFESLQEDQEFLERSSKDSSRLLSRNSHKILLTEEKMRKRITRHFPRVINDLRIKLEEADGLFDQPFLFKGKPLSEAIDIQQQEIEAKYPRCRVRMQRSKKGKCGANKENKVIKNTFKATESSIRVPIGLNLNDANITYKTPSKKTIQGLTKNDLSQENSLARHMQGTTKLSSPNRRATRLLAPTVISRNSKGNIERPTLNRNRSSDLSSSPRINHTHGEHAVKPRQLFPIPLNKVDTKGSHIPQLTKEKALELLKRSTGTTGKENVRSPERKSSLEDYAQKLSSPYKEPEHSIYKLSMSPEGKFQLNIQQKDIESGFDDTSMMEDENDKDFITWKNEQVSKLNGFSFTDI
stoichiometry N [1]: 2
